Data as given in article PMC4551927 (Nucleic Acids Research, 2015).

B1: Mycobacterium tuberculosis VapC30 toxin (natural protein)
chain: MMVIDTSALVAMLSDEPDAERFEAAVEADHIRLMSTASYLETALVIEARFGEPGGRELDLWLHRAAVDLVAVHADQADAARAAYRTYGKGRHRAGLNYGDCFSYGLAKISGQPLLFKGEDFQHTDIATVALP
B2: Mycobacterium tuberculosis VapB30 antitoxin (natural protein)
chain: MALSIKHPEADRLARALAARTGETLTEAVVTALRERLARETGRARVVPLRDELAAIRHRCAALPVVDNRSAEAILGYDERGLPA

Assays:
crystal structure = target: the molecule itself; assay: crystal structure
[1] = target: B1; assay: crystal structure

B1
binding result (crystal structure): binds

B2
binding result [1]: binds | binding result (crystal structure): binds
